The values that follow come from article PMC2346476.

The assay addresses recombinant His6-tagged Drosophila PP1α87B (pET28a) (Drosophila) (UniProt P12982).
UniProt P12982, sequence (P12982 whole entry): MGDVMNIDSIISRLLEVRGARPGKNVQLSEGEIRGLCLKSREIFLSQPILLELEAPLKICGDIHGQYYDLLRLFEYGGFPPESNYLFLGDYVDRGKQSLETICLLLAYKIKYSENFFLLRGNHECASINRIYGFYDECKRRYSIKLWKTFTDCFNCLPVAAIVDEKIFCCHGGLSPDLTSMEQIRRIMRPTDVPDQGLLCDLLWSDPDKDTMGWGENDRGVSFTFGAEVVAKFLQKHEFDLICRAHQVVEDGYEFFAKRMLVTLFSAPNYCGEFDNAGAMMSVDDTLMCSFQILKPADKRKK

B1: recombinant His6-tagged Drosophila Uri (pET-28m), bacterially expressed (natural protein)
chain: MDRREDALLQALQTNASETERWEAFKRDNESTIRNLDKFAKNLSVEVMVPIGRKALMPGELIHTNELLVGHYEGYFSACSSHKAKEICQYRLKLAEEQLKKLAVENDLWQKKLHTPFAEGAVPSGDQVEIVEDFNEESHNKWLAEHRKRMRQQKQKERLEREAEPVKKDNEVLRKLEEREMMEELGLDPDNIDEDQLHDMLNQEPLKSTNESSPKSLTQEEEDELWKKLEAEEQNEADELSSEAEESLKTTDNLVRQLMSGETETPSSKKRTAGTNRNVEIQDPISEDDGDDDDEGDQEEEVRTIREQMSLLPNEDREPFLRAQLHVLKAKMRKIQKVNFISDELIHLMNVVVMLEDDLQDLVFEQELEASEEEEEVVENNHLPDEPSKELSTVSESSTNKRRISFALDDEKLEFRREETVAEMLPNAKKNSRDIIKLNAPLKPAGDPQPASIKTKRQTTQDILQKVERNIEFVKENQSVQDFDLLNRIMEESTGLINTLHISFTHSGAIPSPSSDQSDGIPGKPSDFYVRYEKDRARPNDSFPIYVNGFEGEEHVKVPIMSEAARGSAYEDPRSQFSKPNSSEICFTHSGSITPTSNDQSDDIPGNPFDFYEKYEKDRAKFSKSNSSEGDATDPESATKSILRNKSAVDLEPHNVNQQPKKGRKVRNQKKKERTLDDDLRDMSAYQKVMHDLVEKEPTAPEPLPPGKFIDSHAPKKRVSRFKEQRALNKT
Turning to B1, the inhibition of the myelin basic protein phosphatase activity of recombinant PP1α87B by Uri; IC50 of Uri relative to its IC50 against PP1β9C worked out at 25 fold.
